Where no end group is shown, it is not given here.
Columns and labels:
[1] = system: SCG/ThpNkc mice (ANCA-associated vasculitis model mice); assay: Therapeutic effects of MMP12 inhibitors on ANCA-associated vasculitis model mice; type: in vivo
Procedure: SCG/ThpNkc mice (see Proc Natl Acad Sci USA. 1993 Apr. 15; 90(8): 3413-7.) are ANCA-associated vasculitis model mice created by crossing and interbreeding two strains, MRL/Ipr and BXSB, and can be supplied from Laboratory Animal Resource Bank at the National Institute of Biomedical Innovation, Health and Nutrition (resource number: nbio133).
In this experiment, MMP408 (CAS No. 1258003-93-8), which is an MMP12 selective inhibitor, was administered to male SCG/ThpNkc mice, and the therapeutic effects of MMP408 were examined.
The SCG/ThpNkc mice were reared in cages with normal solid food and water. At weeks of age, it was confirmed that the mice had positive occult blood in their urine. From 11 weeks of age, MMP408 was administered via the intraperitoneal route at a dose of 100 μg twice a week. Urine analysis was performed at 15 and 20 weeks of age, and the mice were sacrificed at 20 weeks of age. The number of mice in an MMP408 non-administration group and the number of mice in an MMP408 administration group were n=25 and n=4, respectively.

h MMP12 = h MMP12 (Homo sapiens, UniProt P39900); assay: Evaluation of cleavage of candidate peptides by MMP12 (UPLC); type: biochemical; details: for Number of cleavage peaks, Test: UPLC after incubation with h MMP12, 37° C.; for Number of cleavage peaks, Test / Cleavage rate (%) of each candidate peptide by MMP12: 16 hours; for Cleavage rate (%) of each candidate peptide by MMP12: activated h MMP12 2.0 ng/μL mixed 1:1 with 40 μM peptide, 37° C., UPLC peak area before/after, 440 nm; for cleavage rate by MMP12 (in words: low / medium / high) / cleavage site by MMP12: summary of Table 3
Procedure: The evaluation of cleavage of candidate peptides by MMP12 was performed as follows.
On the first day, h MMP12 was diluted to 50 μg/mL with an assay buffer. APMA was added to the h MMP12 solution to adjust the final concentration of APMA to 1 mM, and the solution was incubated at 37° C. for 24 hours to activate h MMP12.
On the second day, activated h MMP12 was diluted to 2 ng/μL (=40 nM) with an assay buffer The substrate (peptide) was diluted to 40 μM with an assay buffer. 50 μL of h MMP12 (2.0 ng/μL) and 50 μL of the substrate (peptide) were mixed and incubated at 37° C. for 16 hours. A blank was prepared by mixing equal volumes of an assay buffer and the substrate (peptide).
On the third day, 100 μL of acetonitrile was added to the mixture from the second day. After centrifugation for 10 minutes, the supernatant was collected, and 10 μL of the supernatant was analyzed using ultra high performance liquid chromatography (UPLC).
UPLC was performed under the conditions of measurement wavelength: 440 nm, flow rate: 0.4 mL/min, A: H2O with 0.1% TFA, B: CH3CN with 0.1% TFA, and elution conditions 10% B→70% B in 9.5 min, and as a result, it was confirmed that the two positive controls were cleaved by MMP12 (data is not shown).
For the candidate peptide Nos, 2, 4 to 7, 11, 15 to 17, 19, 20, and 22, the evaluation of cleavage by MMP12 was performed in the same manner as for the positive controls. Cleavage by MMP12 was confirmed for all the peptides tested. For Nos. 2 and 4 to 7, the cleavage sites were L-Q and L-R/K, but the cleavage rates were different. […] For Nos. 11, 15, 17, 20, and 22, the cleavage site was E-L, but the cleavage rates were different. The cleavage rate of No. 11 was high and the cleavage rate of No. 15 was low even though these candidate peptides have E-L-l. The cleavage rates of Nos. 17, 20, and 22, which have E-L-R, were high.

Chain of h MMP12 (P39900 106-470): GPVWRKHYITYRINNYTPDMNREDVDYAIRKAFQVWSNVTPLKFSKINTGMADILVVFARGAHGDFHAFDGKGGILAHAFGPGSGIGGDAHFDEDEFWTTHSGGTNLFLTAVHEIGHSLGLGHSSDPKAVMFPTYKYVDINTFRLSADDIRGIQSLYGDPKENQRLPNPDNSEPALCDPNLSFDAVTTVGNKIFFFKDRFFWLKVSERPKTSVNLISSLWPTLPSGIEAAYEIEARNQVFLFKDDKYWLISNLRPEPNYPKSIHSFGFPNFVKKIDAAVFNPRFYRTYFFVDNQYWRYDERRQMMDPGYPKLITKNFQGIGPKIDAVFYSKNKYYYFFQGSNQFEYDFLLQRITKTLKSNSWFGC

Row | Molecule | Number of cleavage peaks, Test (h MMP12) | Cleavage rate (%) of each candidate peptide by MMP12 (h MMP12) [%] | cleavage rate by MMP12 (in words: low / medium / high) (h MMP12) | cleavage site by MMP12 (h MMP12) | urine occult blood ([1]; MMP408 administration group, week 20, FIG. 12 (n=2)) | mice still alive at 20 weeks (survival curve) ([1]; male SCG/ThpNkc mice, MMP408 100 μg intraperitoneal twice a week from 11 weeks of age, n=4, log-rank test p=0.037 vs non-administration group (92% died by 20 weeks))
1 | COC(=O)Nc1ccc2oc3cc(S(=O)(=O)N[C@@H](C(=O)O)C(C)C)ccc3c2c1 [MMP408] |  |  |  |  | improved | 2 out of 4
2 | APIANELRSQSLQT (not fully specified; also: 5-carboxyfluorescein label) [No. 17] | 1 | 98.6 | high | E-L |  | 
3 | APRIKKIVQKKLAG (not fully specified; also: 5-carboxyfluorescein label) [No. 19] | 1 | 26.0 |  |  |  | 
4 | DKVWQDYIKDMKEN [No. 02] | 1 | 56.0 | medium |  |  | 
5 | LNVQRKAIHELIQV (not fully specified; also: 5-carboxyfluorescein label) [No. 11] | 2 | 100.0 | high | E-L |  | 
6 | PAAAVLRELRSVS (not fully specified; also: 5-carboxyfluorescein label) [No. 22] | 3 | 100.0 | high | E-L |  | 
7 | SFSSSRNLQERL (not fully specified; also: 5-carboxyfluorescein label) [No. 06] | 1 | 90.3 | medium to high |  |  | 
8 | SRNLQERLRRKE (not fully specified; also: 5-carboxyfluorescein label) [No. 05] | 1 | 38.5 | medium to high |  |  | 
9 | STNLQESLRRKE (not fully specified; also: 5-carboxyfluorescein label) [No. 07] | 2 | 70.4 | medium to high |  |  | 

Second part, led by results:

Row | Number of cleavage peaks, Test (h MMP12) | Cleavage rate (%) of each candidate peptide by MMP12 (h MMP12) [%] | cleavage rate by MMP12 (in words: low / medium / high) (h MMP12) | cleavage site by MMP12 (h MMP12) | Molecule | urine occult blood ([1]; MMP408 administration group, week 20, FIG. 12 (n=2)) | mice still alive at 20 weeks (survival curve) ([1]; male SCG/ThpNkc mice, MMP408 100 μg intraperitoneal twice a week from 11 weeks of age, n=4, log-rank test p=0.037 vs non-administration group (92% died by 20 weeks))
10 | 2 | 100.0 | high | E-L | ASVVTELRSQSLQT (not fully specified; also: 5-carboxyfluorescein label) [No. 20] |  | 
11 | 1 | 61.7 |  |  | PESSLRKRKRSR (not fully specified; also: 5-carboxyfluorescein label) [No. 16] |  | 
12 | 1 | 10.5 | low | E-L | RQAFNEKIRVVHQL (not fully specified; also: 5-carboxyfluorescein label) [No. 15] |  | 
13 | 1 | 53.5 | medium |  | SLSFSTNLQKRL (not fully specified; also: 5-carboxyfluorescein label) [No. 04] |  | 

Reference: patent US20260153518A1, “DIAGNOSIS OF IMMUNE-MEDIATED INFLAMMATORY DISEASES USING MMP12 AS INDICATOR, AND MEDICINE FOR TREATING IMMUNE-MEDIATED INFLAMMATORY DISEASES VIA MMP12 INHIBITION” (KEIO UNIVERSITY, priority 2022, published 2026)
